# Test results reported in publication PMC2739136.
# Numbering of substitutions follows the chain as printed.
# T1: MBP-TraR I229Y, P33905
# T1 chain: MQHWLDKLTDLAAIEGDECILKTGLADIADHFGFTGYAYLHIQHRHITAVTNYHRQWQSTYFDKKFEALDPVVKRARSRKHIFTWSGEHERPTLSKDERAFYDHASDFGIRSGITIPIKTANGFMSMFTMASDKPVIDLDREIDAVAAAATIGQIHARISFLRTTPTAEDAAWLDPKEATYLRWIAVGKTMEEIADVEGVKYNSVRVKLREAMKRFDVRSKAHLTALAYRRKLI
# T2: MBP-TraR L5M, P33905
# T2 chain: T1 chain with L5M, Y229I
# T3: MBP-TraR F161A, P33905
# T3 chain: T1 chain with F161A, Y229I
# T4: MBP-TraR A150V, P33905
# T4 chain: T1 chain with A150V, Y229I
# T5: MBP-TraR I155F, P33905
# T5 chain: T1 chain with I155F, Y229I
# T6: MBP-TraR K119A, P33905
# T6 chain: T1 chain with K119A, Y229I
# T7: MBP-TraR A222D, P33905
# T7 chain: T1 chain with A222D, Y229I
# T8: MBP-TraR A149V, P33905
# T8 chain: T1 chain with A149V, Y229I
# B1: native TraR (wild type) (protein)
# chain: T1 chain with Y229I
# Legend:
# Assay in all cases: pull-down
# MBP-TraR I229Y, P33905 = biological target: T1, MBP-TraR I229Y, P33905
# MBP-TraR L5M, P33905 = biological target: T2, MBP-TraR L5M, P33905
# MBP-TraR F161A, P33905 = biological target: T3, MBP-TraR F161A, P33905
# MBP-TraR A150V, P33905 = biological target: T4, MBP-TraR A150V, P33905
# MBP-TraR I155F, P33905 = biological target: T5, MBP-TraR I155F, P33905
# MBP-TraR K119A, P33905 = biological target: T6, MBP-TraR K119A, P33905
# MBP-TraR A222D, P33905 = biological target: T7, MBP-TraR A222D, P33905
# MBP-TraR A149V, P33905 = biological target: T8, MBP-TraR A149V, P33905
protein,measurement,setting,value
B1,heterodimer formation (% of wild type) (% of wild type),"MBP-TraR I229Y, P33905",23
same,heterodimer formation (% of wild type) (% of wild type),"MBP-TraR L5M, P33905",99
same,heterodimer formation (% of wild type) (% of wild type),"MBP-TraR F161A, P33905",49
same,heterodimer formation (% of wild type) (% of wild type),"MBP-TraR A150V, P33905",15
same,heterodimer formation (% of wild type) (% of wild type),"MBP-TraR I155F, P33905",50
same,heterodimer formation (% of wild type) (% of wild type),"MBP-TraR K119A, P33905",94
same,heterodimer formation (% of wild type) (% of wild type),"MBP-TraR A222D, P33905",29
same,heterodimer formation (% of wild type) (% of wild type),"MBP-TraR A149V, P33905",19
